Laboratory results: IntAct's records for PubMed 11731480

B1: Histone acetyltransferase SAS2 (Saccharomyces cerevisiae), P40963 (parent)
chain: MARSLSQSLTATTQKLKGKKNGGKGKNKPSAKIKKTQKEMLYGILNERNIRQIQFGLNKKFSTWYGSAVYFDPETKRLGCSETKGQLSSVSNSQYWLDTLFVCEYCFKYTDDQTRFVGHVASCPFQYRVPGKIKYKSPEYTIRRVKGSKYQLFCQCLCLFTKLYLDNKSMYFKVDHYEFYIVYETGSTKPMGFFSKDLVSYQQNNLACILIFPPYQRRGLGLLLIEFSYKLSQLEGVISGPEVPLSPFGLIGYLKYWSQILCWHLIEGDLAHYDKVTLEDLSIVTGMRVNDVILTLKHLNCIGENNQIYLQSLNSWLKLHGTKRNWFKLKDEYLLIDD
partner: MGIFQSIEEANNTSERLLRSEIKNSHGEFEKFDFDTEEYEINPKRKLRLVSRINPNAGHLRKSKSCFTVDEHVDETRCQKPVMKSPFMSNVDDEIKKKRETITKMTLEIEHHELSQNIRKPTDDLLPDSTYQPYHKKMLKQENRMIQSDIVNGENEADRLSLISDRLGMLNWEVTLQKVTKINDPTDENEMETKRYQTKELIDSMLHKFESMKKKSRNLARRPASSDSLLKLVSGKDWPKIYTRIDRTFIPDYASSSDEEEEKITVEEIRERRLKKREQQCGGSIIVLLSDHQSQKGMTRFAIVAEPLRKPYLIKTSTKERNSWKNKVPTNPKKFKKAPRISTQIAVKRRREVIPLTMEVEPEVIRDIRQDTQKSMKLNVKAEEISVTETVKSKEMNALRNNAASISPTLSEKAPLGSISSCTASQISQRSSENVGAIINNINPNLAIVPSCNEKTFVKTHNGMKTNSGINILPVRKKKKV
B2: Histone acetyltransferase SAS2 (Saccharomyces cerevisiae), P40963 (parent)
chain: B1 chain

Variants of: B1
Conditions: with sas4_yeast SAS4, Q04003

Variant | effect of a mutation on the interaction
P213A;P214V | decreasing interaction
C106L | decreasing interaction

Variants of: B2
Conditions: with caf1a_yeast RLF2, Q12495
caf1a_yeast RLF2, Q12495, sequence (Q12495 whole entry): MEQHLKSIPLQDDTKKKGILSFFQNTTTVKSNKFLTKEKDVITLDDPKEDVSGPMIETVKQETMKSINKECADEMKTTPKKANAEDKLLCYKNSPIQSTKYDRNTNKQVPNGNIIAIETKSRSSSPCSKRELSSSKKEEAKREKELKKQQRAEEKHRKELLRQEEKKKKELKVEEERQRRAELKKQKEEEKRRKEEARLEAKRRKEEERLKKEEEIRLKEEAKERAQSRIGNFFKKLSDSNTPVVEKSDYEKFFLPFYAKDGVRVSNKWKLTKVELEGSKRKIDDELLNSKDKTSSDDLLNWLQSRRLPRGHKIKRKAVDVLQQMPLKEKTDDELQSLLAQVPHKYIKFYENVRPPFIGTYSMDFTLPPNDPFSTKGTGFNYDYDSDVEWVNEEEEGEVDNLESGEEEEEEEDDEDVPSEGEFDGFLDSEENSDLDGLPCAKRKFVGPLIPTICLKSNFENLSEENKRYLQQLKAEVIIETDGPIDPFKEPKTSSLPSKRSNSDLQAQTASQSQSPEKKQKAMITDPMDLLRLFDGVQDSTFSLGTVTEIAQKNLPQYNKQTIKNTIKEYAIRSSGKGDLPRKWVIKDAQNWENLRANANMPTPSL

Variant | effect of a mutation on the interaction
C106L | decreasing interaction
P213A;P214V | decreasing interaction
